According to patent US20130330358A1, “CRYSTAL STRUCTURE AND PEPTIDE INHIBITORS OF HAUSP DEUBIQUITINASE” (priority 2011, published 2013):
Like-named read-outs stand apart in the source and are kept apart here.

B1: vIRF4^153-256: vIRF4 aa 153-256 region, hexahistidine-tagged, expressed in E. coli (protein)
chain: SDTREQSYEEAGAAAPAPPKAPSGLRGRPRKSNRYYNVGDITTEQKAACSVWIPVNEGASTSGMGSSGTRQVTQASSFTWRVPGDPPAPSTLTGPSDPHSSGAG
modifications: left off: small tags and cut ends
notes: vIRF4 aa 153-256 region, hexahistidine-tagged, expressed in E. coli
B2: vIRF4^153-216: vIRF4 aa 153-216 fragment, hexahistidine-tagged, expressed in E. coli (protein)
chain: SDTREQSYEEAGAAAPAPPKAPSGLRGRPRKSNRYYNVGDITTEQKAACSVWIPVNEGASTSGM
modifications: left off: small tags and cut ends
notes: vIRF4 aa 153-216 fragment, hexahistidine-tagged, expressed in E. coli

Legend:
[1] = biological target: T1, HAUSP TRAF domain HAUSP^62-205 (Homo sapiens, UniProt Q93009); test: biochemical; type: binding; conditions: for n: Table 1a, ITC fit parameter n, 150 mM NaCl, 10 mM HEPES (pH 7.0)
T1 construct: HAUSP^62-205, and HAUSP^62-560 were fused to a hexahistidine-tag2 and expressed in E. coli BL21 (DE3) RIPL cells; hexahistidine (cleaved yes); made in house; host or cells: E. coli BL21 (DE3) RIPL
T1 sequence (Q93009 62-205): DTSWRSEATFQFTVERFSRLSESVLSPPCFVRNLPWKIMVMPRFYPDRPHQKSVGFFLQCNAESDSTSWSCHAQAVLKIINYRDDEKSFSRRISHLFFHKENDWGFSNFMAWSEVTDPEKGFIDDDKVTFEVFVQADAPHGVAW
Description: FIG. 5. Typical isothermal titration calorimetric measurements of the interactions between the HAUSP TRAF domain and the vIRF4 protein derivatives or other peptides. Purified proteins and synthesized peptides were reconstituted in 150 mM NaCl and 10 mM HEPES (pH 7.0). The calorimetric assays were performed using a VPITC system. All experiments were carried out with a stirring speed of 300 rpm at 20° C., and the thermal power was recorded every 10 s. Data were analyzed using the ORIGIN software package (version 7.0). […] Each titration against the HAUSP TRAF domain is indicated in each panel.
Purified proteins and synthesized peptides (Peptron Inc., Deajeon, Korea) were reconstituted in 150 mM NaCl and 10 mM HEPES (pH 7.0). The calorimetric assays were performed using a VP-ITC system (MicroCal Inc., Northampton, Mass.). Samples were degassed by vacuum aspiration for 15 min prior to loading. All experiments were carried out with a stirring speed of 300 rpm at 20° C., and the thermal power was recorded every 10 s. Data were analyzed using the ORIGIN software package (version 7.0) supplied with the instrument. […]

[2] = biological target: T1, HAUSP TRAF domain HAUSP^62-205; test: Size exclusion chromatography, complex formation in 5-fold excess of MDM2^137-152; type: binding; conditions: in the presence of a 5-fold molar excess of MDM2 peptide

Molecule | Kd ([1]; HAUSP^62-205 and vIRF4^153-256, ITC, read-out: dissociation constant (Kd)) | Kd ([1]; ITC, 20° C., read-out: Kd) | n ([1]; 20° C.) | complex formation with the HAUSP TRAF domain [2]
B1 | 76 nM | 76 nM | 1.13 ± 0.18 | 
B2 |  | 540 nM | 0.82 ± 0.09 | formed a stable complex
